Test results: US20190248883 (published 2019)

Experiments:
[1] = biological target: GRO-beta (human, UniProt P19875); assay: ELISA
[2] = biological target: GRO-alpha (human, UniProt P09341); assay: ELISA
[3] = biological target: IP-10 (human, UniProt P02778); assay: ELISA
[4] = biological target: T1, IL-8 (human, UniProt P10145); assay: SPR, 37C, bivalent
[5] = biological target: T1, IL-8; assay: SPR, 25C, bivalent
[6] = biological target: T1, IL-8; assay: SPR, 25C
[7] = biological target: T1, IL-8; assay: SPR, 37C

T1 sequence (P10145 28-99): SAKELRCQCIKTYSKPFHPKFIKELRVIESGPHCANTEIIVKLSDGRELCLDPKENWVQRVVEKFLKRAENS
Sequence of IP-10 (P02778 22-98): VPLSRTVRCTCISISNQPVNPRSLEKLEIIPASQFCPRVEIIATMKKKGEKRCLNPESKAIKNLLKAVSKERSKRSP
Sequence of GRO-alpha (P09341 35-107): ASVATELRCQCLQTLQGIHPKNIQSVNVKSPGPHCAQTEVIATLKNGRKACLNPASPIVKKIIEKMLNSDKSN
Sequence of GRO-beta (P19875 35-107): as the sequence (P09341 35-107) above, with S2P, V3L, P20L, N27K, R48Q, I58M, N68K, S69N, D70G counted along it

| Binder | binding result [1] | binding result [2] | binding result [3] | Kd [4] [nM] | Kd [5] [nM] | Kd [6] [nM] | Kd [7] [nM] |
| --- | --- | --- | --- | --- | --- | --- | --- |
| 10F8 IgG1,kappa (antibody, V domains shown) VH: QVQLVESGGGVVQPGRSLRLSCTASGFTFSHYGMYWVRQAPGKGLEWVAVIWYDGSYEYNADSVKGRFTISRDNSKNTLYLQMNSLRAEDTAVYYCARDRVGLFDYWGQGTLVTVSS VL: EIVLTQSPGTLSLSPGERATLSCRASQSISSSYLAWYQQKPGQAPRLLIYGPSSRATGIPDRFSGSGSGTDFTLTISRLEPEDFAVYYCQQYAGSLTFGPGTKVDIK | no binding | no binding | no binding | 0.02 | 0.01 | – | – |
| 10F8 Fab (antibody, V domains shown) VH: QVQLVESGGGVVQPGRSLRLSCTASGFTFSHYGMYWVRQAPGKGLEWVAVIWYDGSYEYNADSVKGRFTISRDNSKNTLYLQMNSLRAEDTAVYYCARDRVGLFDYWGQGTLVTVSS VL: EIVLTQSPGTLSLSPGERATLSCRASQSISSSYLAWYQQKPGQAPRLLIYGPSSRATGIPDRFSGSGSGTDFTLTISRLEPEDFAVYYCQQYAGSLTFGPGTKVDIK | – | – | – | – | – | 0.194 | 0.372 |
